Experimental data published in patent US20260125649A1, “MEDIUM COMPOSITION AND METHOD FOR CULTURING MESENCHYMAL STEM CELLS” (ACADEMIA SINICA, priority 2018, published 2026).

How the values were obtained:
Oct4, Sox2, c-Myc, Lin28 = assay: qPCR of pluripotency factors in MSCs; assay type: cell-based, human; settings: EpEX treatment
Description: The expression of let-7 was detected by qPCR. MSCs expressing EGFR shRNA, STAT3 shRNA or Lin28b shRNA were stimulated with EpEX. The expression of let-7 was detected by qPCR. […] Expression of pluripotency factors (Oct4, Sox2, c-Myc and Lin28) was examined by qPCR. MSCs were transfected with a let-7 mimetic, and then stimulated with EpEX. Protein levels of pluripotency factors (Oct4, Sox2, c-Myc, and Lin28) were examined by Western blotting.
Total RNA was extracted using TRI reagent (Invitrogen, CA, USA), and 5 μg of total RNA was reverse transcribed using oligo (dT) primer (Fermentas, Glen Burnie, MD, USA) with SuperScript III reverse transcriptase (Invitrogen). Quantitative real time RT-PCR (qPCR) was performed on cDNA using the Light Cycler 480 SYBR Green I Master kit (Roche Applied Science, Indianapolis, IN) and the LightCycler480 System (Roche Applied Science). The gene expression levels of each sample were normalized to the expression levels of glyceraldehyde 3-phosphate dehydrogenase (GAPDH).

[1] = tested on: EpICD binding to the Oct4 promoter; assay: ChIP of EpICD binding to the Oct4 promoter; assay type: cell-based, human; settings: EpEX 3 μg/mL, ChIP-qPCR
Method: FIG. 12. EpEX increases the binding of EpICD to the promoter of Oct4 by inhibiting let7. (A) MSCs were transfected with let7 inhibitor or mimetics then treated with EpEX (3 μg/mL). Binding of EpICD to the Oct4 promoter was examined by chromatin immunoprecipitation (ChIP). EpICD was pulled down by a specific anti-EpICD antibody. The cross-linked DNA was isolated and then probed by qPCR with specific primers for the Oct4 promoter. (B) MSCs were transfected with let7 inhibitor or mimetics then treated with EpEX (3 μg/mL). Binding of EpICD-HMGA2 was examined by sequential ChIP. EpICD was pulled down by a specific anti-EpICD antibody, followed by pull-down with a HMGA2 antibody. To detect bound Oct4 promoter, the cross-linked DNA was isolated and then amplified by qPCR with specific primers.
We performed chromatin immunoprecipitation (ChIP) with the Pierce™ Magnetic ChIP Kit (Thermo Fisher Scientific), to according the manufacturer's instructions. In brief, the protein-DNA complexes were cross-linked with 1% formaldehyde and quenched by adding glycine to a final concentration of 200 mM. […]
The immunoprecipitated DNA was recovered by a PCR purification kit (Thermo Fisher Scientific), and the purified DNA was subjected to real time quantitative PCR for further analysis. Immunoprecipitation/input was calculated for each gene and each gene was further normalized to the level of mouse β-actin promoter. […]

binding of EpICD to the promoter of Oct4 [1]: increases
B1: EpEX: extracellular domain of human EpCAM, 265 amino acids in length (SEQ ID NO: 2) (protein, listed as Homo sapiens)
chain: MAPPQVLAFGLLLAAATATFAAAQEECVCENYKLAVNCFVNNNRQCQCTSVGAQNTVICSKLAAKCLVMKAEMNGSKLGRRAKPEGALQNNDGLYDPDCDESGLFKAKQCNGTSMCWCVNTAGVRRTDKDTEITCSERVRTYWIIIELKHKAREKPYDSKSLRTALQKEITTRYQLDPKFITSILYENNVITIDLVQNSSQKTQNDVDIADVAYYFEKDVKGESLFHSKKMDLTVNGEQLDLDPGQTLIYYVDEKAPEFSMQGLK
expression of the gene for Oct4 (Oct4, Sox2, c-Myc, Lin28): can induce
